Sequences and labels used below:
B1: Tryptophan synthase alpha chain, P0A877 (parent)
chain: MERYESLFAQLKERKEGAFVPFVTLGDPGIEQSLKIIDTLIEAGADALELGIPFSDPLADGPTIQNATLRAFAAGVTPAQCFEMLALIRQKHPTIPIGLLMYANLVFNKGIDEFYAQCEKVGVDSVLVADVPVEESAPFRQAALRHNVAPIFICPPNADDDLLRQIASYGRGYTYLLSRAGVTGAENRAALPLNHLVAKLKEYNAAPPLQGFGISAPDQVKAAIDAGAAGAISGSAIVKIIEQHINEPEKMLAALKVFVQPMKAATRS

This data set covers variants of B1. To be noted: Escherichia coli (strain K12), pH 7.8, Urea, CD, Potassium phosphate 10 mM, structure 1WQ5, whole UniProt chain shown.

This is an account of results in FireProtDB (doi:10.1021/bi00458a027).

“And” between values parts separate entries of the source, which are not always exact repeats. Equal values may be shown once.

As to MERYESLFAQLKERKEGAFVPFVTLGDPGIEQSLKIIDTLIEAGADALELGIPFSDPLADGPTIQNATLRAFAAGVTPAQCFEMLALIRQKHPTIPIGLLMYANLVFNKGIDEFYAQCEKVGVDSVLVADVPVEESAPFRQAALRHNVAPIFICPPNADDDLLRQIASYGRGYTYLLSRAGVTGAENRAALPLNHLVAKLKEYNAAPPLQEFGISAPDQVKAAIDAGAAGAISGSAIVKIIEQHINEPEKMLAALKVFVQPMKAATRS [G211E], where the note is “25 °C”, the denaturant m value is 3 kcal/mol/M and 1.5 kcal/mol/M; the “denaturant midpoint (higher = more stable)” value (“denaturant midpoint” for short) was 2.73 M and 3.72 M; the unfolding free energy is 8.1 kcal/mol and 5.5 kcal/mol.

For MERYESLFAQLKERKEGAFVPFVTLGDPGIEQSLKIIDTLIEAGADALELGIPFSDPLADGPTIQNATLRAFAAGVTPAQCFEMLALIRQKHPTIPIGLLMYANLVFNKGIDEFYAQCEKVGVDSVLVADVPVEESAPFRQAALRHNVAPIFICPPNADDDLLRQIASYGRGYTYLLSRAGVTGAENRAALPLNHLVAKLKEYNAAPPLQSFGISAPDQVKAAIDAGAAGAISGSAIVKIIEQHINEPEKMLAALKVFVQPMKAATRS [G211S], where the note is “25 °C”, the “ddG of mutation (higher = less stable)” value was -0.2 kcal/mol; the denaturant m value was 2.4 kcal/mol/M and 1.3 kcal/mol/M; the “denaturant midpoint” value was 2.46 M and 3.97 M; the unfolding free energy was 5.9 kcal/mol and 5.2 kcal/mol.

As to MERYESLFAQLKERKEGAFVPFVTLGDPGIEQSLKIIDTLIEAGADALELGIPFSDPLADGPTIQNATLRAFAAGVTPAQCFEMLALIRQKHPTIPIGLLMYANLVFNKGIDEFYAQCEKVGVDSVLVADVPVEESAPFRQAALRHNVAPIFICPPNADDDLLRQIASYGRGYTYLLSRAGVTGAENRAALPLNHLVAKLKEYNAAPPLQWFGISAPDQVKAAIDAGAAGAISGSAIVKIIEQHINEPEKMLAALKVFVQPMKAATRS [G211W], under “25 °C”, the “ddG of mutation (higher = less stable)” value was 1.6 kcal/mol and 1.1 kcal/mol; the denaturant m value was 1.8 kcal/mol/M and 1.1 kcal/mol/M; the “denaturant midpoint” value is 2.25 M and 3.62 M; the unfolding free energy was 4.1 kcal/mol and 3.9 kcal/mol.

For MERYESLFAQLKERKEGAFVPFVTLGDPGIEQSLKIIDTLIEAGADALELGIPFSDPLADGPTIQNATLRAFAAGVTPAQCFEMLALIRQKHPTIPIGLLMYANLVFNKGIDEFYAQCEKVGVDSVLVADVPVEESAPFRQAALRHNVAPIFICPPNADDDLLRQIASYGRGYTYLLSRAGVTGAENRAALPLNHLVAKLKEYNAAPPLQRFGISAPDQVKAAIDAGAAGAISGSAIVKIIEQHINEPEKMLAALKVFVQPMKAATRS [G211R], under “4 °C”, the denaturant m value was 1.6 kcal/mol/M and 2.2 kcal/mol/M; the “denaturant midpoint” value is 1.4 M and 3.28 M.

Regarding MERYESLFAQLKERKEGAFVPFVTLGDPGIEQSLKIIDTLIEAGADALELGIPFSDPLADGPTIQNATLRAFAAGVTPAQCFEMLALIRQKHPTIPIGLLMYANLVFNKGIDEFYAQCEKVGVDSVLVADVPVEESAPFRQAALRHNVAPIFICPPNADDDLLRQIASYGRGYTYLLSRAGVTGAENRAALPLNHLVAKLKEYNAAPPLQVFGISAPDQVKAAIDAGAAGAISGSAIVKIIEQHINEPEKMLAALKVFVQPMKAATRS [G211V], under “25 °C”, the denaturant m value is 1.9 kcal/mol/M and 1.6 kcal/mol/M; the “denaturant midpoint” value is 2.78 M and 4.3 M; the unfolding free energy is 5.4 kcal/mol and 6.9 kcal/mol.

Turning to MERYESLFAQLKERKEGAFVPFVTLGDPGIEQSLKIIDTLIEAGADALELGIPFSDPLADGPTIQNATLRAFAAGVTPAQCFEMLALIRQKHPTIPIGLLMYANLVFNKGIDEFYAQCEKVGVDSVLVADVPVEESAPFRQAALRHNVAPIFICPPNADDDLLRQIASYGRGYTYLLSRAGVTGAENRAALPLNHLVAKLKEYNAAPPLQDFGISAPDQVKAAIDAGAAGAISGSAIVKIIEQHINEPEKMLAALKVFVQPMKAATRS [G211D], where the note is “25 °C”, the “ddG of mutation (higher = less stable)” value is 0.3 kcal/mol and 0.8 kcal/mol; the denaturant m value was 2 kcal/mol/M and 1.2 kcal/mol/M; the “denaturant midpoint” value is 2.7 M and 3.61 M; the unfolding free energy was 5.4 kcal/mol and 4.2 kcal/mol.
